The text below walks through data of paper PMC2605707.

The experiment concerns the target RDE-4 variant R2C (dsRBM2 and C-terminus) (C. elegans). Description: SEC.

As to “RDE-4 variant R2C (dsRBM2 and C-terminus) (domain or fragment)”, the stoichiometry N was found to be 2.
